From IntAct's records for PubMed 19008859

B1: Myocardin-related transcription factor A (Mus musculus), Q8K4J6 (parent)
chain: MTLLEPEMLMMAVQSVLQLKLQQRRTREELVSQGIMPPLKSPAAFHEQRRSLERARTEDYLKRKIRSRPERAELVRMHILEETSAEPSLQAKQLKLKRARLADDLNEKIAQRPGPMELVEKNILPVESSLKEAIIVGQVNYPKVADSSSFDEDSSDALSPEQPASHESQGSVPSPLESRVSDPLPSATSISPTQVLSQLPMAPDPGETLFLAEQPPLPPAPLLPPSLANGSIVPTAKPAPTLIKQSQPKSASEKSQRSKKAKELKPKVKKLKYHQYIPPDQKQDKGAPAMDSSYAKILQQQQLFLQLQILNQQQQQQQQQHYNYQAILPAPPKPSAETPGSSAPTPSRSLSTSSSPSSGTPGPSGLARQSSTALAAKPGALPANLDDMKVAELKQELKLRSLPVSGTKTELIERLRAYQDQVSPAPGAPKAPATTSVLSKAGEVVVAFPAALLSTGSALVTAGLAPAEMVVATVTSNGMVKFGSTGSTPPVSPTPSERSLLSTGDENSTPGDAFGEMVTSPLTQLTLQASPLQIVKEEGARAASCCLSPGARAELEGLDKDQMLQEKDKQIEELTRMLQQKQQLVELLRLQLEQQKRAQQPAPASSPVKRESGFSSCQLSCQPQGSAHAFGSGLVVPTTNHGDTQAPAPESPPVVVKQEAGPPEPDLAPSSQLLLGSQGTSFLKRVSPPTLVTDSTGTHLILTVTNKSADGPGLPAGSPQQPLSQPGSPAPGPPAQMDLEHPPQPPFATPTSLLKKEPPGYEETVTQQPKQQENGSSSQHMDDLFDILIQSGEISADFKEPPSLPGKEKSPPAAAAYGPPLTPQPSPLSELPQAAPPPGSPTLPGRLEDFLESSTGLPLLTSGHEGPEPLSLIDDLHSQMLSSSAILDHPPSPMDTSELHFAPEPSSGMGLDLAVGHLDSMDWLELSSGGPVLSLAPLSTAAPSLFSMDFLDGHDLQLHWDSCL

Variants of: B1
Conditions: with acts_rabit ACTA1, P68135

| effect of a mutation on the interaction | Variant |
| --- | --- |
| disrupting interaction | L118A;I123A;L124A |

Variants of: B1
Conditions: with acts_rabit ACTA1, P68135
Remark: another data set of the same source

| effect of a mutation on the interaction | Variant |
| --- | --- |
| disrupting interaction | R68A |

Variants of: B1
Conditions: with acts_rabit ACTA1, P68135
Remark: another data set of the same source

| effect of a mutation on the interaction | Variant |
| --- | --- |
| disrupting interaction | G114E;P115Q;L118A;I123A;L124A |

Variants of: B1
Conditions: with acts_rabit ACTA1, P68135
Remark: another data set of the same source

| effect of a mutation on the interaction | Variant |
| --- | --- |
| disrupting interaction | L61A;I65A |

Variants of: B1
Conditions: with acts_rabit ACTA1, P68135
Remark: another data set of the same source

| effect of a mutation on the interaction | Variant |
| --- | --- |
| decreasing interaction | P69R |

Variants of: B1
Conditions: with acts_rabit ACTA1, P68135
Remark: another data set of the same source

| effect of a mutation on the interaction | Variant |
| --- | --- |
| increasing interaction | G114E;P115R |

Variants of: B1
Conditions: with acts_rabit ACTA1, P68135
Remark: another data set of the same source

| effect of a mutation on the interaction | Variant |
| --- | --- |
| disrupting interaction | R24A |

Variants of: B1
Conditions: with acts_rabit ACTA1, P68135
Remark: another data set of the same source

| effect of a mutation on the interaction | Variant |
| --- | --- |
| disrupting interaction | R112A |

Variants of: B1
Conditions: with acts_rabit ACTA1, P68135
Remark: another data set of the same source

| effect of a mutation on the interaction | Variant |
| --- | --- |
| disrupting interaction | R24D;R25D |

Variants of: B1
Conditions: with acts_rabit ACTA1, P68135
Remark: another data set of the same source

| effect of a mutation on the interaction | Variant |
| --- | --- |
| disrupting interaction | L105A;I109A |

Variants of: B1
Conditions: with acts_rabit ACTA1, P68135
Remark: another data set of the same source

| effect of a mutation on the interaction | Variant |
| --- | --- |
| disrupting interaction | L74A;I79A;L80A |
